Experimental data from the supplement of paper PMC12764529.
± gives the half width of the 95% confidence interval.

Key:
[1] = folding stability dG unfold from trypsin proteolysis; higher = more stable
Method in brief: (§1)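 Bayesian fitting of sequencing counts gave K50 for each design. Unfolding free energy followed by setting this against a sequence-predicted unfolded-state K50 and a shared folded-state K50, either per protease or with trypsin and chymotrypsin combined. The designs, under 80 residues and lacking cysteine, were digested in a PA-tagged cDNA display format at 11 threefold-diluted protease concentrations and without protease, and only those with AlphaFold2 dimer inter-PAE above 15 were kept.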

[2] = folding stability dG unfold (combined trypsin and chymotrypsin); higher = more stable
Method in brief: as §1

[3] = folding stability dG unfold from chymotrypsin proteolysis; higher = more stable
Method in brief: as §1

Sequence | folding stability dG unfold [1] | folding stability dG unfold [2] | folding stability dG unfold [3]
SAGGMLTLTDPETGVPYTGTPVSTTTTTVVLTTPDGTPVETVTVTVTTYEFTAPDGTPVTLTETTGLSAGGS [r8_214_JUSTAS] | 7.32 ± 0.297 kJ/mol | 8.72 ± 0.218 kJ/mol | 9.5 ± 0.105 kJ/mol
SAGGMLTYTTEYDPRGVLTVREYDPSTSKPISTHIIELGPEPVPPPVPGFPQVTPSGELRLVEDPAGPSAGG [r13_9_JUSTAS] | -0.743 ± 0.502 kJ/mol | -0.224 ± 0.628 kJ/mol | -0.394 ± 1.38 kJ/mol
SAGGMLVEARPVLRLTLVSPDGTPREFELPFTVPFSPENPEALLEEAEAIARAIAEATGAEAEIEIEPSAGG [r13_853_TrMRF] | 2.12 ± 0.268 kJ/mol | 1.33 ± 0.628 kJ/mol | 0.071 ± 0.962 kJ/mol
SAGGMMEIEVEIEKLEDGTYRIRIRVRLPNGEEVEKEMTFDRETGTLTITFDRPIEPDQIVEIEIEPSAGGS [r16_95_TrROS_Hall] | 16.5 ± 0.669 kJ/mol | 17.9 ± 0.795 kJ/mol | 18.4 ± 0.837 kJ/mol
SAGGMMKLNPKTLETKTTTVPLPDGSTVTLTTKLVELKFPNGEVELVTLTVETFPSEPTLTVLEEKPLSAGG [r19_158_JUSTAS] | -0.0946 ± 0.347 kJ/mol | 1.42 ± 0.46 kJ/mol | 1.88 ± 0.418 kJ/mol
SAGGMMTIEELKKLPPGAKVGDKIKIRNPATGETFTVTVLPDGRIKIEVDGKIYELPPGAEIVEIEKSAGGS [r8_162_TrROS_Hall] | 8.06 ± 0.36 kJ/mol | 9.09 ± 0.544 kJ/mol | 9.89 ± 0.318 kJ/mol
SAGGMMTPVSEETLPDGSKVLVEENPATGERTVTTLNPATGTVTTETLKRVPGENAWTLLSKTTTPAPSAGG [r19_249_JUSTAS] | 8.505 ± 0.0753 kJ/mol | 8.12 ± 0.172 kJ/mol | 7.66 ± 0.0837 kJ/mol
SAGGMMYLKLKVKNKNGEEIEVLIEFDEKTGKAYIYNKKTGKKIEMTLEELLKQENIEIEEIEPLPEPSAGG [r13_994_TrROS_Hall] | 12.1 ± 0.502 kJ/mol | 17 ± 0.544 kJ/mol | 18 ± 0.502 kJ/mol
SAGGMNISIEPIGRDNDRWYYMITFPGDANEIKDFIEEFLPPGLPIKVKVLEVDPENGHVTVMIEIPRSAGG [r13_491_TrROS] | 9.23 ± 0.176 kJ/mol | 13.6 ± 0.243 kJ/mol | 15 ± 0.18 kJ/mol
SAGGMPAKAVTTKLPDGTDRITVTTVGSGKSATIPVPAGELKVIEIEEGEETLSVSFVEVGPDNPELGSAGG [r13_122_TrMRF] | -1.78 ± 0.184 kJ/mol | 0.434 ± 0.234 kJ/mol | 1.56 ± 0.0586 kJ/mol
SAGGMPEGMVVLRIRVRVEKVEVRRDPAVPGRVSRRVEVREVEIELVVDSREALEALRELGFEIEEVSAGGS [r8_482_TrROS_Hall] | 15.8 ± 0.414 kJ/mol | 17.7 ± 0.335 kJ/mol | 18.6 ± 0.46 kJ/mol
SAGGMPEKVVVLRIRVTIRRDGEEEEIELEIRLPEEGQELTEEQLLALLRELLPPGYEIRRVEIEELSAGGS [r16_407_TrROS_Hall] | 19.4 ± 0.322 kJ/mol | 19.8 ± 0.201 kJ/mol | 19.89 ± 0.18 kJ/mol
SAGGMPEPRPIPLTLTLLVDPEDPESVEEKLREFFEAFGADEITRVERELLPDGRALVTAEVLVNEPVSAGG [r13_222_TrMRF] | 4.29 ± 0.126 kJ/mol | 4.82 ± 0.255 kJ/mol | 4.91 ± 0.18 kJ/mol
SAGGMPEVKIKVEITEIKVDKETGKTVTIRIKSVEITTADGRKYRVEKEIRIRPDGSIEVKVKVEELPSAGG [r13_917_TrROS_Hall] | 11.5 ± 0.372 kJ/mol | 15.7 ± 0.502 kJ/mol | 17.6 ± 0.586 kJ/mol
SAGGMPIKSKKEAEEFIKKGGAKYLSKTKVKVKGEEKEKEFEVYEFVFKDPKTNKPILVVVPKEYIGSAGGS [r16_271_TrMRF] | -0.193 ± 0.837 kJ/mol | 3.71 ± 0.962 kJ/mol | 5.32 ± 0.628 kJ/mol
SAGGMPKIVEIEILSEEYDPSTGVRTYTAKVTYPDGTEEVVTIPVDLTDGNATEEEVKKRVEELVLESAGGS [r16_221_JUSTAS] | 16.5 ± 0.92 kJ/mol | 15.7 ± 0.544 kJ/mol | 15.3 ± 0.46 kJ/mol
SAGGMPKPVTLPAVIELGAGPAIAVEEFPETGKLVFVFPPTHRIFVFDPNGKLVAEVDVPPDVPVSAVSAGG [r13_507_TrMRF] | 3.77 ± 0.222 kJ/mol | 3.89 ± 0.628 kJ/mol | 4.07 ± 1.3 kJ/mol
SAGGMPKTITVERTLDVDPAVLASTTPEELVARVVEELRAEGVPISSVDPQTITRGATTVTVRVTLLESAGG [r13_432_JUSTAS] | 6.953 ± 0.0586 kJ/mol | 8.69 ± 0.121 kJ/mol | 9.716 ± 0.0962 kJ/mol
SAGGMPPDARKLIREIAQDFGMSDIEPDEEGHVRINMPNPMMIQVDVENGEPKIKIYNNNKWREIPISAGGS [r16_296_TrROS] | 1.49 ± 0.331 kJ/mol | 1.83 ± 0.544 kJ/mol | 1.72 ± 1.3 kJ/mol
SAGGMPPGQVVRLRLERVSPTWVRLYFPETGEVLYFPVRPDATLAEAEAIARELAERLGYPVEIETVSAGGS [r16_446_TrMRF] | 15.7 ± 0.322 kJ/mol | 15.9 ± 0.293 kJ/mol | 15.81 ± 0.0586 kJ/mol
SAGGMPPVVLEYEIDIKPDPNETLEDVLEKAEEFVEELKEAFPELDLKEVKVEVDPEKGKVKITVVFPSAGG [r13_1011_TrMRF] | 7.4 ± 0.46 kJ/mol | 8.04 ± 0.502 kJ/mol | 8.17 ± 0.586 kJ/mol

Sequence | folding stability dG unfold [1] | folding stability dG unfold [2] | folding stability dG unfold [3]
SAGGMPREVAKEMIENDKDAKVTFTIYRFPDGPVPSVTVEVIEADVKDPDAFLESVPEGWLVLVEPASAGGS [r16_116_TrMRF] | 1.03 ± 0.544 kJ/mol | 3.22 ± 0.356 kJ/mol | 4.9 ± 0.46 kJ/mol
SAGGMPVPVTFPFAGADEVIAFATALEELVNAPVGLTLISPSGEEREVGDPDSIVDEDGFTVRVTVPASAGG [r13_620_TrMRF] | 5.78 ± 0.0628 kJ/mol | 3.85 ± 0.163 kJ/mol | -1.6 ± 0.669 kJ/mol
SAGGMPVTLEIVLPNLHDVLGPEFFDALKNITVPNGTPIKKITVKPIGDKTVILIEVDSPEDAKDILGSAGG [r13_269_TrMRF] | 6.02 ± 0.502 kJ/mol | 6.62 ± 0.628 kJ/mol | 6.94 ± 0.711 kJ/mol
SAGGMPVTTTPRTVELPDRRVEVIDRTFPNGPPRTTVVVRDPAGNLVATREFTGPEWEEWLRAEGALLSAGG [r19_90_JUSTAS] | -2.54 ± 0.711 kJ/mol | 2.96 ± 0.201 kJ/mol | 4.45 ± 0.146 kJ/mol
SAGGMRIRIVVPPEMSPEEIAELLKKLFPDYEIKVEVKTVKVKVKDEETGEEYEVEVLVVEIEIKEKSAGGS [r16_828_TrROS_Hall] | 15.1 ± 0.753 kJ/mol | 15.7 ± 0.586 kJ/mol | 15.8 ± 0.502 kJ/mol
SAGGMRIYIPPELPEEKVEEIREEAEEEFPVEVTLERFPEPGYVVLEFEGEEEELYRRIEEKIREKGSAGGS [r16_227_TrMRF] | 4.89 ± 0.669 kJ/mol | 6.48 ± 1.72 kJ/mol | 5.93 ± 1.46 kJ/mol
SAGGMRPMVVTVRYPDGSVQTLVADYDPDTDVIRFPFPSDGTERDIPAGEWREDPDYQVLSETPLSLESAGG [r13_994_JUSTAS] | 6.61 ± 0.188 kJ/mol | 4.05 ± 0.218 kJ/mol | 0.0884 ± 0.46 kJ/mol
SAGGMSALRIVAENLPEDARVVLPDGRVFPPGVELELPLEADLDVVVALDEDGRVHHVERVPLDRPLLSAGG [r13_441_TrMRF] | -1.47 ± 0.669 kJ/mol | -1.63 ± 0.414 kJ/mol | -2.1 ± 0.879 kJ/mol
SAGGMSEEVRKLAEELAKKLNIEKVEVLPDGTVRITLKNGKKIEIKVEKVEVKEVKVEVEVEEVEEESAGGS [r16_296_TrROS_Hall] | 10.7 ± 1.13 kJ/mol | 15.1 ± 2.05 kJ/mol | 17.2 ± 1.17 kJ/mol
SAGGMSVSITVTVTPTEVRVVENPTNGVNTAFTETTVTVTVNHPSSVSPEEKAALIAAVKAANPGAASAGGS [r8_306_JUSTAS] | 12 ± 2.38 kJ/mol | 10.2 ± 2.05 kJ/mol | 8.04 ± 2.38 kJ/mol
SAGGMTAEEIAEALRERLRELFPPGAEIEVDEIEVEEVEVEEEPVELSEEERERVEKMPEEERERLLSAGGS [r16_272_TrROS_Hall] | 5.29 ± 0.92 kJ/mol | 2.66 ± 1.38 kJ/mol | -0.405 ± 0.753 kJ/mol
SAGGMTASSTTLPPSGITSQTTTDPATGVTTTTTRYPDGTVTTTTTTALPPPAAATTTTTTALPGSAAASAG [r5_766_JUSTAS] | 8.05 ± 0.502 kJ/mol | 7.41 ± 0.36 kJ/mol | 7.03 ± 0.293 kJ/mol
SAGGMTETITGEFDDEEEAIAYAKKIVKEKYPNKNVTMEIETTYDPKTGKYKVTATITIPDEGEEHHSAGGS [r8_17_JUSTAS] | 19.7 ± 1.46 kJ/mol | 24.9 ± 1.55 kJ/mol | 23.5 ± 0.753 kJ/mol
SAGGMTFSGVTREQALAIAKALEEEGYVLERVEVVEFPEDGTVRALVVVRDPETDEPLAEIELDIKPSAGGS [r16_750_TrMRF] | 6.4 ± 0.0711 kJ/mol | 7.12 ± 0.23 kJ/mol | 7.56 ± 0.151 kJ/mol
SAGGMTIEKEDGKYRITITINGKTYTFTIPKELENKTEEEIAAELAAELAEKFGLKEITEIKIEKVPSAGGS [r8_402_TrROS_Hall] | 9.98 ± 0.402 kJ/mol | 13.2 ± 0.418 kJ/mol | 14.89 ± 0.105 kJ/mol
SAGGMTIELTIVAETEEEAEKAAEELARKLAELYPDLKVKVTVEKVEVKDEETGKTYLVYKVRIEIEPSAGG [r13_545_TrROS_Hall] | 18.7 ± 0.795 kJ/mol | 20.7 ± 0.46 kJ/mol | 20.7 ± 0.46 kJ/mol
SAGGMTILFEADSLEEARQAVEDLLRDLGIPAIAERITVEERTFRLPAGPGTRRFVLVTIDLRLEPPSAGGS [r16_587_TrMRF] | 11.2 ± 0.13 kJ/mol | 11 ± 0.142 kJ/mol | 10.55 ± 0.0879 kJ/mol
SAGGMTITIPPSVPDADVERIVEEAEATFPQPVTLTRDPGRGRWTLTFDGPEDERREAIEALAARLASAGGS [r16_227_JUSTAS] | 0.307 ± 0.586 kJ/mol | 1.82 ± 0.502 kJ/mol | 2.37 ± 0.795 kJ/mol
SAGGMTITIPVTESGSLEEALALAERVAEEARAAGLEEVTITVTVYDPANGEVLYTKTRRVPVRPEASAGGS [r8_33_JUSTAS] | 8.5 ± 0.134 kJ/mol | 9.25 ± 0.13 kJ/mol | 9.515 ± 0.0322 kJ/mol
SAGGMTIVEKDGKLVLKITVTVPPGTTVEELKNALKELFGVEEVKVVKIEKNENGEITITVEAVFPKSAGGS [r16_234_TrROS_Hall] | 10.8 ± 0.502 kJ/mol | 12.7 ± 0.46 kJ/mol | 13.9 ± 0.544 kJ/mol
SAGGMTIVLPNGITLTFYPDRTVTATVDFPGRPLTLTLDAASLAEAVAAVERAAAEWAAPAPPVVDLSSAGG [r13_896_TrMRF] | 10.7 ± 0.176 kJ/mol | 11.4 ± 0.176 kJ/mol | 11.81 ± 0.0544 kJ/mol
